Assay [1] concerns the target T1, human FLT3 expressed on the cell surface (human, UniProt P36888 27-993).
T1 construct: FLT3 on human leukemia cell lines, on recombinant cells and on primary blood cells; also called Flk2; STK1
Put plainly: FACS, biotinylated isotype control 10 ug/ml, Streptavidin-PE, OCI-AML2 cells (AML).

Assay [2] has as its target T1, human FLT3 expressed on the cell surface. Put plainly: FACS, biotinylated isotype control 10 ug/ml, Streptavidin-PE, MOLM-13 cells (AML).
For assay [3] the target is unchanged. Description: FACS, biotinylated isotype control 10 ug/ml, Streptavidin-PE, RS4;11 cells (B-ALL). Background: A flow cytometer gives signals particle by particle.
For assay [4] the target is unchanged. Put plainly: FACS, biotinylated isotype control 10 ug/ml, Streptavidin-PE, NALM-1 cells (CML).
The target is the same in assay [5]. Put plainly: FACS, biotinylated isotype control 10 ug/ml, Streptavidin-PE, MONOMAC-1 cells (AML).
Assay [6] has the same target. Description: FACS, biotinylated isotype control 10 ug/ml, Streptavidin-PE, EOL-1 cells (AML).
Assay [7] has the same target. Put plainly: FACS, biotinylated isotype control 10 ug/ml, Streptavidin-PE, SKM-1 cells (AML).
The target is the same in assay [8]. Description: FACS, biotinylated isotype control 10 ug/ml, Streptavidin-PE, REH cells (ALL).
The target is the same in assay [9]. Description: FACS, biotinylated isotype control 10 ug/ml, Streptavidin-PE, MV-4-11 cells (AML).
For assay [10] the target is unchanged. Put plainly: FACS, biotinylated isotype control 10 ug/ml, Streptavidin-PE, THP-1 cells (AML).
Assay [11] has the same target. Description: FACS, biotinylated isotype control 10 ug/ml, Streptavidin-PE, PL-21 cells (AML).
For assay [12] the target is unchanged. Put plainly: FACS, biotinylated isotype control 10 ug/ml, Streptavidin-PE, SEM cells (B-ALL).
Assay [13] has the same target. Put plainly: competition FACS on MOLM-13 cells: FL titrated 0.1 to 100 ng/ml, 30 min pre-incubation; displaced antibody: biotinylated cHv62-1b37.1 at 10 ug/ml. As to the method: (§1) In another experiment, The ability of anti-FLT3 antibodies, CHv62.21 and v62-1b37.1, to bind to FLT3 expressed on the surface of human leukemia MOLM-13 cell line was evaluated in the presence of human FLT3 Ligand (hFL). Isotype control antibody, AGS91.1-pAF, was used as a negative control.
(§2) Briefly, The MOLM-13 cells were seeded at a density of 50,000 cells per well onto round-bottom 96 well plates. The plates were washed one time with 150 μl per well of PBS. The cells were Fc blocked (20 μg/mL) at a volume of 50 μl per well in FACS buffer (PBS+2% FBS+0.1% sodium azide) to reduce non-specific binding. Cells were incubated at 4° C. for 15 minutes. Human FLT3 Ligand was added to appropriate wells at 100 ng/mL and serially diluted 1:2 across the plate for a total of 11 points. Cells were incubated for 30 minutes at 4° C. prior to adding biotinylated FLT3 antibodies. After incubation, the biotinylated anti-FLT3 antibodies and isotype control antibody were prepared in FACS buffer at 10 μg/mL and 1 μg/mL and 25 μl was added to wells and incubated for 1 hour at 4° C. Cells were washed two times with FACS buffer and Streptavidin-PE (Jackson immune) was added 100 μl per well and incubated for 1 hour at 4° C. Cells were washed two times with FACS buffer and read on the Attune Cytometer (Life technologies) and analyzed in FlowJo (Tree Star) software.

Assay [14] has the same target. Put plainly: FACS on MOLM-13 cells: 30 min pre-incubation with human FLT3 ligand, then biotinylated antibody, streptavidin-PE. How it is done:
as §1, §2

Assay [15] has the same target. Put plainly: FACS, biotinylated antibody 10 ug/ml, Streptavidin-PE, RS4;11 cells (B-ALL). As to the method:
(§3) CHv62.21 was tested for binding to AML and B-ALL cell lines grown in vitro. (See, FIG. 15A-M). Briefly, CHv62.21 and an isotype matched control antibody were biotinylated using NHS LC biotin. In vitro, exponentially grown cancer cell lines were used for all experiments. Cells were harvested by and washed by centrifugation. Cells were Fc blocked to reduce non-specific binding. Antibodies were diluted to 10 ug/ml final concentration and co-incubated with cells at 4° C. for 1 hour. At the end of the incubation, cells were washed and incubated with secondary detection Streptavidin-PE antibody at a final 1:200 (2.5 ug/ml) dilution for 1 hour at 4° C. After washing un-bound secondary antibody, cells were analyzed by FACS and geometric mean fluorescence was determined and reported. Fluorescence ratio was calculated as follows: Geo mean cHv62.21/Geo mean isotype control=MFR, a measure of fold expression above isotype control.
(§4) Geometric Mean values and Mean Florescence ratios (MFR) values were obtained (Table VI) and histograms are shown (FIG. 15A-M).

Assay [16] has the same target. Put plainly: FACS, biotinylated antibody 10 ug/ml, Streptavidin-PE, SKM-1 cells (AML). As to the method: as §3, §4
For assay [17] the target is unchanged. Put plainly: FACS, biotinylated antibody 10 ug/ml, Streptavidin-PE, SEM cells (B-ALL). As to the method: as §3
The target is the same in assay [18]. Put plainly: FACS, biotinylated antibody 10 ug/ml, Streptavidin-PE, MONOMAC-1 cells (AML). As to the method:
as §3, §4

The target is the same in assay [19]. Description: FACS, biotinylated antibody 10 ug/ml, Streptavidin-PE, MV-4-11 cells (AML). As to the method: as §3, §4
Assay [20] has the same target. Put plainly: FACS, biotinylated antibody 10 ug/ml, Streptavidin-PE, EOL-1 cells (AML). As to the method:
as §3, §4

The target is the same in assay [21]. Description: FACS, biotinylated antibody 10 ug/ml, Streptavidin-PE, MOLM-13 cells (AML). How it is done:
as §3

Assay [22] has the same target. Put plainly: FACS, biotinylated antibody 10 ug/ml, Streptavidin-PE, PL-21 cells (AML). As to the method:
as §3, §4

For assay [23] the target is unchanged. Description: FACS, biotinylated antibody 10 ug/ml, Streptavidin-PE, REH cells (ALL). How it is done:
as §3, §4

The target is the same in assay [24]. Description: FACS, biotinylated antibody 10 ug/ml, Streptavidin-PE, OCI-AML2 cells (AML). As to the method:
as §3, §4

Assay [25] has the same target. Description: FACS, biotinylated antibody 10 ug/ml, Streptavidin-PE, NALM-1 cells (CML). How it is done:
as §3

Assay [26] has the same target. Description: FACS, biotinylated antibody 10 ug/ml, Streptavidin-PE, THP-1 cells (AML). As to the method:
as §3, §4

Assay [27] has the same target. Description: flow cytometry, cell surface FLT3.

The values that follow come from patent publication US20160272716A1 (AGENSYS, published 2016).

T1 sequence (P36888 27-993 T227M limits assumed): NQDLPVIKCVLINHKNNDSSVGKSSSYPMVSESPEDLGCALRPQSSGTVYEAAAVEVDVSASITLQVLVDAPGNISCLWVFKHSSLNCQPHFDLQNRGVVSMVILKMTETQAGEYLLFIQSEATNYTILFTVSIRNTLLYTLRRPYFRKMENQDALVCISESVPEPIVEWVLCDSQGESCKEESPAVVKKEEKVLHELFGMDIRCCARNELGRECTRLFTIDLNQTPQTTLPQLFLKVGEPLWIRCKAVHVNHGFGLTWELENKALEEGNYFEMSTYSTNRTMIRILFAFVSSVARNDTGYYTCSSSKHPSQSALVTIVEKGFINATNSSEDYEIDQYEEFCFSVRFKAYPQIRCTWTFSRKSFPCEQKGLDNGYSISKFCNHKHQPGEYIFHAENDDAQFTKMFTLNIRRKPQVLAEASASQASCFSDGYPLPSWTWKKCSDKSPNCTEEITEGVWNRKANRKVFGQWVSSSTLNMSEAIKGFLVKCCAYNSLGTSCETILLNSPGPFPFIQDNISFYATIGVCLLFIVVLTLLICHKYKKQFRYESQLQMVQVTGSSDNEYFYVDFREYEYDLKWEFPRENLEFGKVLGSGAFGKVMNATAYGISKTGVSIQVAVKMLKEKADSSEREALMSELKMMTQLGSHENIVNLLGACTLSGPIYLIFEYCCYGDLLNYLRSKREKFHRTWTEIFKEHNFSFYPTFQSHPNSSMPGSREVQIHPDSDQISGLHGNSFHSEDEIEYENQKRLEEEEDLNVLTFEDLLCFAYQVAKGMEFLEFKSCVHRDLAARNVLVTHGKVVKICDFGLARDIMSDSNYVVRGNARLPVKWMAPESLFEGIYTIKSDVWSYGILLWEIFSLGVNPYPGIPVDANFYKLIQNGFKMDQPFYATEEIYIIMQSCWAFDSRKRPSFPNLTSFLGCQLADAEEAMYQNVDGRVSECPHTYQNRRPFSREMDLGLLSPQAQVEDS

For the molecule “isotype matched control antibody (Example 9)”, the Geometric Mean fluorescence is 329 in [1]; 320 in assay [2]; 213 in assay [3]; 262 in assay [4]; 338 in assay [5]; 281 in [6]. Besides, the Geometric Mean fluorescence in [7] stood at 445; in [8] it was 235; in [9], 366; in [10], 474; in assay [11], 570; in [12], 212.

B1: human FLT3 ligand (ligand, UniProt P49771 27-185, looked up)
chain: TQDCSFQHSPISSDFAVKIRELSDYLLQDYPVTVASNLQDEELCGGLWRLVLAQRWMERLKTVAGSKMQGLLERVNTEIHFVTKCAFQPPPSCLRFVQTNISRLLQETSEQLVALKPWITRQNFSRCLELQCQPDSSTLPPPWSPRPLEATAPTAPQPP
modifications: biotinylated (Sulfo-NHS-LC-Biotin) in the Luminex assay
notes: later experiments say human FLT3 ligand; Treated as one molecule; also called hFL
B1: the “IC50 (read off the curve)” value in [13] is roughly 10 ng/mL.

B2: v62-1b37.1 (antibody, human IgG1, kappa, V domains shown)
VH: EVQLVESGGGVVRPGGSLRLSCAASGFTFDDYGMSWVRQAPGKGLEWVSGINWNGGSTGYADSVKGRFTISRDDAKNSLYLQMNSLRAEDTALYHCARDGYTYGPFDNWGQGTLVTVSS
VL: DIQMTQSPSSLSASVGDRVTITCRASQGIRNDLGWYQQKPGKAPKRLIYAASSLQSGVPSRFSGSGSGTEFTLTISSLQPEDFATYYCLQHNSYPYTFGQGTKLEIKR
modifications: biotinylated in the MOLM-13 FACS
notes: also called cHv62-1b37.1
Turning to B2, the binding result in [14] was “binds”.

B3: CHv62.21 MAb (antibody, human IgG1, kappa, V domains shown)
VH: EVQLVESGGGLVRPGGSLRLSCAASGFTFSGYSINWVRQAPGKGLEWVSSISSSSNYIYYADSVKGRFTISRDNAKNSLYLQMNSLRAEDTAVYYCAREGFIAGTTFDAFDIWGQGTMVTVSS
VL: DIQMTQSPSSLSASVGDRVTITCRASQGIRNDLGWYQQKPGKAPKRLIYAASSLQSGVPSRFSGSGSGTEFTLTISSLQPEDFATYYCLQHNGFPYTFGQGTKLEIKR
modifications: C-terminal lysine deleted in most of the purified MAb; N-terminal pyroglutamate in a part of it; biotinylated with NHS LC biotin for the FACS of Table VI
notes: Recombinant, CHO-expressed, human IgG1 / kappa; variable regions from hybridoma v62-1b21; ATCC PTA-121831; also called cHv62-1b21.1
As to B3, the “MFR (Geo mean cHv62.21/Geo mean isotype control)” value in [15] was determined as 86 fold; in [16] it was 7 fold; in [17], 623 fold; in [18] it was 34 fold; in [19], 8 fold; in [20] it was 50 fold. In addition, the “MFR (Geo mean cHv62.21/Geo mean isotype control)” value in [21] is 44 fold; in [22] it was 7 fold; in assay [23] it was 69 fold; in assay [24] it was 17 fold; in assay [25], 49 fold; in assay [26] it was 42 fold.

B4: v62-1b21 (hybridoma MAb) (antibody, V domains shown)
VH: EVQLVESGGGLVRPGGSLRLSCAASGFTFSGYSINWVRQAPGKGLEWVSSISSSSNYIYYADSVKGRFTISRDNAKNSLYLQMNSLRAEDTAVYYCAREGFIAGTTFDAFDIWGQGTMVTVSS
VL: DIQMTQSPSSLSASVGDRVTITCRASQGIRNDLGWYQQKPGKAPKRLIYAASSLQSGVPSRFSGSGSGTEFTLTISSLQPEDFATYYCLQHNGFPYTFGQGTKLEIKR
notes: also called AGS62.21; v62.21
On to B4, for which, in assay [27], the binding result is recorded as “binds”.
